Experimental data taken from article PMC3618968 (The Journal of neuroscience : the official journal of the …, 2013).

Target: mouse PCDH15 EC1+2 (wild type) (mouse, UniProt Q99PJ1 27-259)
Assay: ITC

- binding result: binds
B1: mouse CDH23 EC1+2 (domain or fragment)
chain: QVNRLPFFTNHFFDTYLLISEDTPVGSSVTQLLARDMDNDPLVFGVSGEEASRFFAVEPDTGVVWLRQPLDRETKSEFTVEFSVSDHQGVITRKVNIQVGDVNDNAPTFHNQPYSVRIPENTPVGTPIFIVNATDPDLGAGGSVLYSFQPPSPFFAIDSARGIVTVIQELDYEVTQAYQLTVNATDQDKTRPLSTLANLAIIITD
